Measured values reported in IntAct's records for PubMed 17012600.

B1: Protein NDR1 (Arabidopsis thaliana (Mouse-ear cress)), O48915 (parent)
chain: MNNQNEDTEGGRNCCTCCLSFIFTAGLTSLFLWLSLRADKPKCSIQNFFIPALGKDPNSRDNTTLNFMVRCDNPNKDKGIYYDDVHLNFSTINTTKINSSALVLVGNYTVPKFYQGHKKKAKKWGQVKPLNNQTVLRAVLPNGSAVFRLDLKTQVRFKIVFWKTKRYGVEVGADVEVNGDGVKAQKKGIKMKKSDSSFPLRSSFPISVLMNLLVFFAIR
partner: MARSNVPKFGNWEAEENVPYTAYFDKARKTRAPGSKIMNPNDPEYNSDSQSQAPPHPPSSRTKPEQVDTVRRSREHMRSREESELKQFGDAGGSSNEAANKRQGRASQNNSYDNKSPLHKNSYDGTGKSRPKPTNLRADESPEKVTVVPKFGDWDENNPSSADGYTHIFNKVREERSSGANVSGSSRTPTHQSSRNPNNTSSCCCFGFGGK

Variants of: B1
Details: with rin4_arath RIN4, Q8GYN5

Q: With Q4A as the variant, how does the “effect of a mutation on the interaction” value read?
A: disrupting interaction

Q: How did the “effect of a mutation on the interaction” value turn out when N5A was run?
A: disrupting interaction
